Data published in publication PMC9668737, “Herpes simplex virus 1 protein pUL21 alters ceramide metabolism by activating the interorganelle transport protein CERT” (The Journal of Biological Chemistry, 2022).
Positions count from the first letter of the chain named. Names and notes keep the numbering of the source. Values joined by “and” are separate entries in the source; they are usually repeats but may differ in a detail not shown here. Equal entries are not always repeated.

B1: StrepII-CERTL^P (hyperphosphorylated StrepII-tagged CERTL) (natural protein, human, UniProt Q9Y5P4-1 1-624, looked up)
chain: MSDNQSWNSSGSEEDPETESGPPVERCGVLSKWTNYIHGWQDRWVVLKNNALSYYKSEDETEYGCRGSICLSKAVITPHDFDECRFDISVNDSVWYLRAQDPDHRQQWIDAIEQHKTESGYGSESSLRRHGSMVSLVSGASGYSATSTSSFKKGHSLREKLAEMETFRDILCRQVDTLQKYFDACADAVSKDELQRDKVVEDDEDDFPTTRSDGDFLHSTNGNKEKLFPHVTPKGINGIDFKGEAITFKATTAGILATLSHCIELMVKREDSWQKRLDKETEKKRRTEEAYKNAMTELKKKSHFGGPDYEEGPNSLINEEEFFDAVEAALDRQDKIEEQSQSEKVRLHWPTSLPSGDAFSSVGTHRFVQKPYSRSSSMSSIDLVSASDDVHRFSSQVEEMVQNHMTYSLQDVGGDANWQLVVEEGEMKVYRREVEENGIVLDPLKATHAVKGVTGHEVCNYFWNVDVRNDWETTIENFHVVETLADNAIIIYQTHKRVWPASQRDVLYLSVIRKIPALTENDPETWIVCNFSVDHDSAPLNNRCVRAKINVAMICQTLVSPPEGNQEISRDNILCKITYVANVNPGGWAPASVLRAVAKREYPKFLKRFTSYVQEKTAGKPILF
modifications: hyperphosphorylated (sites not given)
notes: human CERTL, UniProt Q9Y5P4-1, synthetic gene; Trimer by SEC-MALS (observed 184.3 kDa, expected 215.7 kDa); not shown: StrepII, N-terminal, kept
B2: StrepII-CERTL^S132A (natural protein, human, UniProt Q9Y5P4-1 1-624, looked up)
chain: B1 chain with S132A
modifications: hypophosphorylated
notes: human CERTL, UniProt Q9Y5P4-1, synthetic gene, S132A; Trimer by SEC-MALS (observed 199.2 kDa); also called constitutively hypophosphorylated form of CERTL; source: Freestyle 293F, stably transfected, doxycycline-induced, purified (StrepTrap HP, Superose 6 SEC); not shown: StrepII, N-terminal, kept
B3: H6-pUL21C (domain or fragment)
chain: QDSAPPGPTLRELWWVFYAADRALEEPRADSGLTREEVRAVRGFREQAWKLFGSAGAPRAFIGAALGLSPLQKLAVYYYIIHRERRLSPFPALVRLVGRYTQRHGLYVPRPDDPVLADAINGLFRDALAAGTTAEQLLMFDLLPPKDVPVGSDVQADSTALLRFIESQRLAVPGGVISPEHVAYLGAFLSVLYAGRGRMSAATHTARLTGVTSLVLAVGDVDRLSAFDRGAAGAASRTRAAGYLDVLLTVRLARSQHGQSV
notes: HSV-1 pUL21 C-terminal domain, amino acids 275-535, UniProt F8RG07; Cloned in pOPTH; Monomer by SEC-MALS and SAXS; also called C-terminal domain of pUL21; source: E. coli T7 Express lysY/Iq, purified (Ni-NTA, SEC); not shown: MAH6, N-terminal, kept
B4: pUL21-H6 (HSV-1 pUL21) (natural protein)
chain: MELSYATTMHYRDVVFYVTTDRNRAYFVCGGCVYSVGRPCASQPGEIAKFGLVVRGTGPDDRVVANYVRSELRQRGLQDVRPIGEDEVFLDSVCLLNPNVSSELDVINTNDVEVLDECLAEYCTSLRTSPGVLISGLRVRAQDRIIELFEHPTIVNVSSHFVYTPSPYVFALAQAHLPRLPSSLEALVSGLFDGIPAPRQPLDAHNPRTDVVITGRRAPRPIAGSGAGSGGAGAKRATVSEFVQVKHIDRVGPAGVSPAPPPNNTDSSSLVPGAQDSAPPGPTLRELWWVFYAADRALEEPRADSGLTREEVRAVRGFREQAWKLFGSAGAPRAFIGAALGLSPLQKLAVYYYIIHRERRLSPFPALVRLVGRYTQRHGLYVPRPDDPVLADAINGLFRDALAAGTTAEQLLMFDLLPPKDVPVGSDVQADSTALLRFIESQRLAVPGGVISPEHVAYLGAFLSVLYAGRGRMSAATHTARLTGVTSLVLAVGDVDRLSAFDRGAAGAASRTRAAGYLDVLLTVRLARSQHGQSV
notes: tegument protein pUL21 of herpes simplex virus 1, UniProt F8RG07; source: E. coli T7 Express lysY/Iq, purified (Ni-NTA, SEC); not shown: His6, C-terminal, kept

Experiments:
[1] = biological target: CERTL (CERT, long isoform) (UniProt Q9Y5P4); assay: SEC-MALS of self-association; settings: reference: wild-type CERTL, hyperphosphorylated (CERTLP); sites S132
[2] = biological target: the molecule itself; assay: SEC-MALS; Superose 6 increase 10/300 GL; 20 mM Tris pH 8.5, 500 mM NaCl, 0.5 mM TCEP; samples injected at 2 mg/ml
[3] = biological target: T1, pUL21-H6 (herpes simplex virus 1 (HSV-1), UniProt F8RG07 1-535); assay: ITC; 25 °C; 20 mM Tris pH 8.5, 500 mM NaCl, 0.5 mM TCEP; CERTL forms in the syringe titrated into pUL21 forms in the cell; one-site binding model; settings: both partners purified
T1 construct: HSV-1 pUL21, UniProt F8RG07; some paragraphs print H6-pUL21; also called H6-pUL21; WT pUL21; source: E. coli T7 Express lysY/Iq, purified (Ni-NTA, SEC); not shown: His6, C-terminal, kept
T1 sequence: B4 chain

[4] = biological target: T2, H6-miniCERTL (human, UniProt Q9Y5P4-1 20-624, residues 20–131 plus 351–624 (MR residues 132 to 350 excluded)); assay: as above; settings: both partners purified
T2 construct: human CERTL, UniProt Q9Y5P4-1, residues 20-131 plus 351-624 (PH and STARTL domains joined by a retained 23 amino acid stretch of the middle region); Cloned into pOPTH; Monomer by SEC-MALS; source: E. coli T7 Express lysY/Iq, purified (Ni-NTA, SEC); not shown: MAH6, N-terminal, kept
T2 sequence (looked up): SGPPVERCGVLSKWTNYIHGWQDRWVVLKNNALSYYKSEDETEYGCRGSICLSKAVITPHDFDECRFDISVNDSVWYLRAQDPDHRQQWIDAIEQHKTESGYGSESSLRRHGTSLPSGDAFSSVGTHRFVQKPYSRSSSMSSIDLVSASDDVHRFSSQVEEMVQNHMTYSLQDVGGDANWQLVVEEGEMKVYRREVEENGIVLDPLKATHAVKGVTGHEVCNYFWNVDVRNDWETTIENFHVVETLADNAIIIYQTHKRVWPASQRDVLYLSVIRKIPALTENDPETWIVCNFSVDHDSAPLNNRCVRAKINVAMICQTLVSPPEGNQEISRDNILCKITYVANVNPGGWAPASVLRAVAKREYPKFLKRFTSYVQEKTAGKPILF

[5] = biological target: T3, StrepII-CERTL^P (hyperphosphorylated human CERTL) (human, UniProt Q9Y5P4-1 1-624, hyperphosphorylated (CERTL^P); sites not given); assay: ITC; CERTL forms in the syringe titrated into pUL21 forms in the cell; 25 °C; 20 mM Tris pH 8.5, 500 mM NaCl, 0.5 mM TCEP; one-site binding model; single titrations; settings: both partners purified
T3 construct: ceramide transport protein CERT, longer cytoplasmic isoform CERTL (with exon 11), human, UniProt Q9Y5P4-1; not shown: StrepII, N-terminal, kept
T3 sequence (looked up): B1 chain

[6] = biological target: T4, StrepII-CERTL^S132A (constitutively hypophosphorylated human CERTL) (human, UniProt Q9Y5P4-1 1-624, S132A); assay: as above; settings: both partners purified
T4 construct: ceramide transport protein CERT, longer cytoplasmic isoform CERTL, human, UniProt Q9Y5P4-1, with S132A; source: Freestyle 293F cells, stably transfected, doxycycline-induced, purified (StrepTrap, SEC); not shown: StrepII, N-terminal, kept
T4 sequence (looked up): B1 chain with S132A

Row | Molecule | stoichiometry N [2] | dH [3] [kcal/mol] | stoichiometry N [3] | also measured
1 | CERTL (CERT, long isoform) (from UniProt Q9Y5P4) CERTL S132A (hypophosphorylated) | – | – | – | other: observed mass (expected trimer 215.7) [1]: same; reference 184.3
2 | B1 | ~3 | 3.89 | 0.74 | –
3 | B2 | ~3 | 2.38 | 0.97 | –
4 | B3 | – | – | – | Kd [4]: 4320 nM
5 | B4 | – | – | – | Kd [5]: 1080 nM and 554 nM and 684 nM; Kd [6]: 460 nM and 824 nM
